In US20100092481A1 (INSTITUTE FOR RESEARCH IN BIOMEDICINE, published 2010):

Tests used:
[1] = target: T1, hCMV gH, gL, UL128, UL130 and UL131A co-expressed in HEK293T cells (human cytomegalovirus, UniProt P12824 24-743; P16832 31-278; P16837 1-171; P16772 1-214); assay: cell cross-competition, 20x excess; competitor 1F11-biotin
T1 construct: whole, on cells; also called gH + gL + UL128 + UL130 + UL131A; gH/gL/UL128-130 complex

[2] = target: T1, hCMV gH, gL, UL128, UL130 and UL131A …; assay: cell cross-competition, 20x excess; competitor 6G4-biotin
[3] = target: T1, hCMV gH, gL, UL128, UL130 and UL131A …; assay: cell cross-competition, 20x excess; competitor 4N10-biotin
[4] = target: T1, hCMV gH, gL, UL128, UL130 and UL131A …; assay: cell cross-competition, 20x excess; competitor 2F4-biotin
[5] = target: T1, hCMV gH, gL, UL128, UL130 and UL131A …; assay: cell cross-competition, 20x excess; competitor 2C12-biotin
[6] = target: T1, hCMV gH, gL, UL128, UL130 and UL131A …; assay: cell cross-competition, 20x excess; competitor 15D8-biotin
[7] = target: T1, hCMV gH, gL, UL128, UL130 and UL131A …; assay: cell cross-competition, 20x excess; competitor 5A2-biotin
[8] = target: T1, hCMV gH, gL, UL128, UL130 and UL131A …; assay: cell cross-competition, 20x excess; competitor 8I21-biotin
[9] = target: T1, hCMV gH, gL, UL128, UL130 and UL131A …; assay: cell cross-competition, 20x excess; competitor 4I22-biotin
[10] = target: T2, hCMV UL130 and UL131A co-expressed in HEK293T cells (human cytomegalovirus, UniProt P16772 1-214); assay: cell-based or functional assay
[11] = target: T1, hCMV gH, gL, UL128, UL130 and UL131A …; assay: cell cross-competition, 20x excess; competitor 10F7-biotin
[12] = target: T2, hCMV UL130 and UL131A co-expressed in …; assay: cell-based or functional assay; remark: listed apart in the source
[13] = target: T1, hCMV gH, gL, UL128, UL130 and UL131A …; assay: cell cross-competition, 20x excess; competitor 8J16-biotin

T2 sequence (P16772 whole entry): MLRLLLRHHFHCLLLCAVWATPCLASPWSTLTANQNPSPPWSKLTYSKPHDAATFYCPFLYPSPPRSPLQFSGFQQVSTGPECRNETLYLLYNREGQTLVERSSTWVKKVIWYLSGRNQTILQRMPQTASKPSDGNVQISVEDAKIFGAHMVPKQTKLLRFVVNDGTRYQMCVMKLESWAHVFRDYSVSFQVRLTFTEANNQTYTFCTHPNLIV

B1: 8I21 (antibody, V domains shown)
VH: LVELVESGGGVVQPGRSLRLSCAASGFTFSSDGMHWVRQSPGRGLEWVAFISSDGSTPYYADSVKGRFTISRDNSKNTLYLQMNSLRAEDTAMYFCAKDWALFRWLRTFDHWGQGTLVTVSS
VL: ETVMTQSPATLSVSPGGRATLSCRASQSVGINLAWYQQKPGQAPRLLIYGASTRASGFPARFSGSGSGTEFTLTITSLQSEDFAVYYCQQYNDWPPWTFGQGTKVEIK
notes: human IgG mAb; also called 8I21-biotin
[1]
  Inhibition of binding (%): 0%
[2]
  Inhibition of binding (%): 0%
[3]
  Inhibition of binding (%): 90%
[4]
  Inhibition of binding (%): 0%
[5]
  Inhibition of binding (%): 0%
[6]
  Inhibition of binding (%): 0%
[7]
  Inhibition of binding (%): 95%
[8]
  Inhibition of binding (%): 100%
[9]
  Inhibition of binding (%): 0%

B2: 4N10 (antibody, V domains shown)
VH: QVQLVQSGAEVKKPGSSVRVSCKASGGTFSSYVIIWVRQAPGQGLEWMGGVIPIFDTVNYAQKFQGRVTITADESTSTAYMELSSLKSEDTAVYYCARGILAYCGGDCYNTPYGMDVWGQGTTVTVSS
VL: DIQMTQSPSILSASVGDRVTITCRASQSISSWLAWYQQKPGKAPKLLIYKASSLEIGVPSRISGSGSGTEFTLTISSLQPDDFATYYCQQYNSSWTFGQGTKVEIK
notes: human IgG mAb; also called 4N10-biotin
[1]
  Inhibition of binding (%): 0%
[2]
  Inhibition of binding (%): 0%
[3]
  Inhibition of binding (%): 100%
[10]
  50% Neutralization ARPE (hCMV VR1814): < 0.001 µg/mL
  50% Neutralization MRC-9 (hCMV VR1814): ≤ 2 µg/mL
[4]
  Inhibition of binding (%): 0%
[5]
  Inhibition of binding (%): 0%
[6]
  Inhibition of binding (%): 0%
[7]
  Inhibition of binding (%): 100%
[11]
  Inhibition of binding (%): 0%
[12]
  90% Neutralization ARPE (hCMV VR1814): 0.02 µg/mL
  90% Neutralization MRC-9 (hCMV VR1814): > 10 µg/mL
[8]
  Inhibition of binding (%): 90%
[9]
  Inhibition of binding (%): 0%

B3: 10F7 (antibody, V domains shown)
VH: EVQLVESGGGLVQPGRSLRLSCTASGFTFGDYAMSWFRQAPGKGLEWVGFIRSKAYGGTTEYAASVKGRFTISRDDSKSIAYLQMNSLKTEDTAVYYCTRASSLLWLLNPQPNFDYWGQGTLVTVSS
VL: SYVLTQPPSVSVAPGQTARITCGGNNIGSNNVHWYQQKPGQAPVLVVYDDSDRPSGIPERFSGSNSGNTATLTISRVEAGDEADYYCQVWDSSSDHPVFGGGTKLTVL
notes: human IgG mAb; also called 10F7-biotin
[1]
  Inhibition of binding (%): 100%
[2]
  Inhibition of binding (%): 0%
[3]
  Inhibition of binding (%): 0%
[10]
  50% Neutralization ARPE (hCMV VR1814): < 0.01 µg/mL
  50% Neutralization MRC-9 (hCMV VR1814): ≤ 2 µg/mL
[4]
  Inhibition of binding (%): 100%
[5]
  Inhibition of binding (%): 0%
[6]
  Inhibition of binding (%): 0%
[7]
  Inhibition of binding (%): 0%
[11]
  Inhibition of binding (%): 100%
[12]
  90% Neutralization ARPE (hCMV VR1814): 0.002 µg/mL
  90% Neutralization MRC-9 (hCMV VR1814): > 10 µg/mL
[8]
  Inhibition of binding (%): 0%
[9]
  Inhibition of binding (%): 100%

B4: 15D8 (antibody, V domains shown)
VH: EVQLVQSGAEVKKPGESLKISCQASGYSFTNYWIAWVRQMPGKGLEWMGIIYPGDSDIKYSPSFRGQVTISADKSISNAFLQWRSLRASDTAMYYCARHAIRGDGFDYWGQGTLVTVSS
VL: SYELTQPPSVSVSPGQTATITCSGDKLGEKYACWYQQKPGQSPVLVMYQDTKRPSGIPERFSGSNSGNTATLTISGTRAMDEADYYCQAWDTNTVIFGGGTKLTVL
notes: human IgG mAb; also called 15D8-biotin
[1]
  Inhibition of binding (%): 0%
[2]
  Inhibition of binding (%): 0%
[3]
  Inhibition of binding (%): 0%
[4]
  Inhibition of binding (%): 0%
[5]
  Inhibition of binding (%): 0%
[6]
  Inhibition of binding (%): 100%
[7]
  Inhibition of binding (%): 0%
[11]
  Inhibition of binding (%): 0%
[8]
  Inhibition of binding (%): 0%
[9]
  Inhibition of binding (%): 0%

B5: 3G16 (antibody, V domains shown)
VH: QSALTQPASVSGSPGESITISCTGTISDVGAYNSVSWYQQHSGTAPELIIYDVTNRPAGVSSRFSGSKSGNTASLTISWLQSEDEAEYYCSSYTTSDTYVFGSGTQVTVL
V domain: RAQLVQSAAEMKNPGASVKVSCEASGYTFTGYYVHWMRQAPGQGLEWMGWINPMTGATKSPQKFQGRVTMTRDTSTTATHIELTRLRSDDSAVFFCARGGPTSTRITGKRHFDLWGRGTLITVAS
notes: human IgG mAb; also called 3G16-biotin
[2]
  Inhibition of binding (%): 0%
[5]
  Inhibition of binding (%): 0%
[8]
  Inhibition of binding (%): 0%

B6: 10P3 (antibody, V domains shown)
VH: EVQLVESGGGLVRPGGSLRLSCAASGFTFHNYRMNWVRQAPGKGLEWVANIKQDGSEKSYVDSVRGRFTTSRDNSKNSLYLQINSLRAEDTAVYYCARGEGYTYGVVYSYSAMDVWGQGTTVIVSS
VL: SYELTQPPSVSVSPGQTARITCSGNVLPNQYASWYQQKPGQAPVLVIYKDTERPSGIPGRFSGSSSGTTVTLTISGVQAEDEADYYCQSADSSGADYVFGTGTKVTVL
notes: human IgG mAb
[1]
  Inhibition of binding (%): 0%
[2]
  Inhibition of binding (%): 0%
[10]
  50% Neutralization ARPE (hCMV VR1814): < 0.001 µg/mL
  50% Neutralization MRC-9 (hCMV VR1814): > 2 µg/mL
[4]
  Inhibition of binding (%): 0%
[5]
  Inhibition of binding (%): 0%
[6]
  Inhibition of binding (%): 0%
[12]
  90% Neutralization ARPE (hCMV VR1814): 0.0025 µg/mL
  90% Neutralization MRC-9 (hCMV VR1814): > 10 µg/mL
[8]
  Inhibition of binding (%): 0%
[9]
  Inhibition of binding (%): 0%

B7: 8L13 (antibody, V domains shown)
VH: QVQLLESGGGVVQPGRSLRLSCAASGFTFSNYGMHWVRQAPGKGLEWVAVIWNDGSKKYYAESVKGRFTISRDNSKNTVYLQMNSLRAEDTAVYYCARDEGVQMVFAMPDYGMDVWGQGTTVTVSS
VL: SYELTQPPSVSVSPGQTASITCSGDKLGDKFACWYQQRPGQSPILVIYQDSKRPSGIPERFSGSNSGNTATLTIRGTQAMDEADYYCQAWDSSTAHYVFGTGTKVTVL
notes: human IgG mAb
[1]
  Inhibition of binding (%): 100%
[10]
  50% Neutralization ARPE (hCMV VR1814): < 0.01 µg/mL
  50% Neutralization MRC-9 (hCMV VR1814): > 2 µg/mL
[11]
  Inhibition of binding (%): 100%
[12]
  90% Neutralization ARPE (hCMV VR1814): 0.001 µg/mL
  90% Neutralization MRC-9 (hCMV VR1814): > 10 µg/mL

B8: 4I22 (antibody, V domains shown)
VH: QVQLVESGGGVVQPGRSLRLSCVASGFTFSSYAMHWVRQAPGKGLEWVAVISYDGDNKFYADSVKGRFRISRDTSKNTLYLEMNSLRAADTAIYYCAREELVGLMPPYYNYGLDVWGQGTTVTVSS
VL: QSVLTQPPSVSAAPGQKVTISCSGSNSNIGNNYVSWYQQLPGRAPKLLIYDNDHRPSGIPDRFSGSKSGTSATLVITGLQTGDEADYYCETWDTSLSAAVVFGGGTKLTVL
notes: human IgG mAb; also called 4I22-biotin
[1]
  Inhibition of binding (%): 100%
[3]
  Inhibition of binding (%): 0%
[10]
  50% Neutralization ARPE (hCMV VR1814): < 0.01 µg/mL
  50% Neutralization MRC-9 (hCMV VR1814): > 2 µg/mL
[4]
  Inhibition of binding (%): 100%
[5]
  Inhibition of binding (%): 0%
[7]
  Inhibition of binding (%): 0%
[11]
  Inhibition of binding (%): 100%
[12]
  90% Neutralization ARPE (hCMV VR1814): 0.0015 µg/mL
  90% Neutralization MRC-9 (hCMV VR1814): > 10 µg/mL
[8]
  Inhibition of binding (%): 0%
[13]
  Inhibition of binding (%): 0%
[9]
  Inhibition of binding (%): 100%
